# Assay results published in patent publication US6319893A, “Raising blood sugar level in hypoglycemic mammals by administering inhibitors of dipeptidyl peptidase IV” (Probiodrug, priority 1998, dated 2001).
# Columns and labels:
# DP IV = DP IV (Homo sapiens, UniProt P27487); experiment: MALDI-TOF mass spectra of glucagon solution incubated with DP IV; type: biochemical; details: 0.14 mmol glucagon solution, 40 mmol TRIS/HCL pH=7.6, 40 nmol DP IV; FIG. 1
# serum DP IV = target: T1, serum DP IV (Homo sapiens, UniProt P27487); experiment: MALDI-TOF mass spectra of a glucagon-serum mixture, serum DP IV-catalysed glucagon cleavage; type: biochemical; details: no inhibitor, FIG. 2 A
# T1 construct: from tissue; host or cells: serum
# Excerpt: Inhibition of Serum DP IV-catalysed Glucagon Cleavage by the DP IV Inhibitor Isoleticyl-thiazolidine
# DP IV, sequence (P27487 whole entry): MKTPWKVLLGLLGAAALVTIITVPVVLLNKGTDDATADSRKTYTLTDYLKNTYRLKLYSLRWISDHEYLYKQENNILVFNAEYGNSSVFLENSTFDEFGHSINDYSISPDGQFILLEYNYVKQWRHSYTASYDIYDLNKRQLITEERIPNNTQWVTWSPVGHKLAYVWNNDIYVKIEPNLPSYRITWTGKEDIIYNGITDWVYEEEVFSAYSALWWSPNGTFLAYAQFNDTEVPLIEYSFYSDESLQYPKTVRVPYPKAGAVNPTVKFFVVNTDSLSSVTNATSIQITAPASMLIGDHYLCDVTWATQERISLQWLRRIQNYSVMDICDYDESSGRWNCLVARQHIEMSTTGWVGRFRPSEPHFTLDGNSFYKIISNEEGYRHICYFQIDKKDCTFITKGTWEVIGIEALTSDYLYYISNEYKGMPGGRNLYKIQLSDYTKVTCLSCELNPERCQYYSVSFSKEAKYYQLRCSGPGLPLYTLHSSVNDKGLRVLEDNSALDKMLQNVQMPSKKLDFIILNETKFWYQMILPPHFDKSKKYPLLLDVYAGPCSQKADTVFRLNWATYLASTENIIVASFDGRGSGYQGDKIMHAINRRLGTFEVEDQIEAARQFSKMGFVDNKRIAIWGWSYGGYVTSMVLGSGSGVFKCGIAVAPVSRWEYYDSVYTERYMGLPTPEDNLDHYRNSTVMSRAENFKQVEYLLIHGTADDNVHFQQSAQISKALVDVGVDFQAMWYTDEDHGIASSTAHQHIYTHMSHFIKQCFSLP
# T1 sequence (P27487 39-766 limits assumed): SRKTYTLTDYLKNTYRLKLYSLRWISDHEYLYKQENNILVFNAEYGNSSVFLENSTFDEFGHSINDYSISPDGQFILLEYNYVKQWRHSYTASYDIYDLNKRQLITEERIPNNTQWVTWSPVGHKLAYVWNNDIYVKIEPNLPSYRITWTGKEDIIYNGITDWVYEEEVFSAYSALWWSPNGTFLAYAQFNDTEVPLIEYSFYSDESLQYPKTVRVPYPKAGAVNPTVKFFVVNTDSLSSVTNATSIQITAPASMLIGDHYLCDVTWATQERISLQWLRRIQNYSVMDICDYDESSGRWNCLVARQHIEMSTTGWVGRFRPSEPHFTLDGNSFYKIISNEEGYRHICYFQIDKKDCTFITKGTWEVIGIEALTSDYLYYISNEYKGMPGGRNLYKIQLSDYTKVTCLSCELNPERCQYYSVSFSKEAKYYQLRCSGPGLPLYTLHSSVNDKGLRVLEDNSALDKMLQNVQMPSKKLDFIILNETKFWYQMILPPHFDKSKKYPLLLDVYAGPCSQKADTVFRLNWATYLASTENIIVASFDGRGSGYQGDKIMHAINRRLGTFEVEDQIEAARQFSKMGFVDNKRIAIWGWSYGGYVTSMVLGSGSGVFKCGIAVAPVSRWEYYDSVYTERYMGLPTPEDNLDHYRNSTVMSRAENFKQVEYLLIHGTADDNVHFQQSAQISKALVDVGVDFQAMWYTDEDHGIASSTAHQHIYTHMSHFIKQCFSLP
substance,measurement,setting,value
glucagon,cleavage of glucagon by DP IV (MALDI-TOF),DP IV,removal of the dipeptides His-Ser and Gln-Gly occurs sequentially depending upon the incubation time
same,hydrolysis of glucagon by serum DP IV (MALDI-TOF),serum DP IV,serum-DP IV hydrolyses glucagoni
